B2: murine RANKL heterodimeric variant mD1 (mouse Dimer 1) (ligand)
chain 1: EAQPFAHLTINAASIPSGSHKVTLSSWYHDRGWADISNMTLSNGKLRVNQDGFYYLYANISFRHHETSGSVPTDYLQLMVYVVKTSIKIPSSHNLMKGGSTKNWSGNSEFHYYSINVGGFFKLRAGEEISIQVSNPSLLDPDQDATYFGAFKVQDID
chain 2: EAQPFAHLTINAASIPSGSHKVTLSSWYHDRGWAKISNMTLSNGKLRVNQDGYYYLYANICFRHHETSGSVPTDYLQLMVYVVKTSIKIPSSHNLMDGGSTKNWSGNSEFHFYSINVGGYFKLRAGEEISIQVSNPSLLDPDQDATYFGAFKVQDID
notes: range 160-316; Heterodimer of monomer A (His-tagged) and monomer B, co-expressed in E. coli; also called RANKL dimer 1; RANK-L Dimer 1; not shown: hexahistidine-tag fused to monomer A
B3: human RANK-Fc (Fc fusion, UniProt Q9Y6Q6 30-212, looked up)
chain: IAPPCTSEKHYEHLGRCCNKCEPGKYMSSKCTTTSDSVCLPCGPDEYLDSWNEEDKCLLHKVCDTGKALVAVVAGNSTTPRRCACTAGYHWSQDCECCRRNTECAPGLGAQHPLQLNKDTVCKPCLAGYFSDAFSSTDKCRPWTNCTFLGKRVEHHGTEKSDAVCSSSLPARKPPNEPHVYLP
notes: also called hRANK-Fc; hRANK-FC; not shown: Fc part of the bought fusion; not described
B4: murine RANKL heterodimeric variant mD2 (mouse Dimer 2) (ligand)
chain 1: EAQPFAHLVINAASIPSGSHKVTLSSWYHDRGWAKISNMTLSNGKLRVNQDGFYYLYANISFRHHETSGKVPTDYLQLMVYVVKTSIKIPSSHNLMKGGSTKNWSGNSEFHYYSINVGGFFKLRAGEEISIQVSNPSLLDPDQDATYFGAFKVQDID
chain 2: EAQPFAHLVINAASIPSGSHKVTLSSWYHDRGWAKISNMTLSNGKLRVNQDGYYYLYANICFRHHETSGKVPTDYLQLMVYVVKTSIKIPSSHNLMDGGSTKNWSGNSEFHFYSINVGGYFKLRAGEEISIQVSNPSLLDPDQDATYFGAFKVQDID
notes: range 160-316; Heterodimer of monomer A (His-tagged) and monomer B, co-expressed in E. coli; also called RANKL dimer 2; dRANKL D2; not shown: hexahistidine-tag fused to monomer A

Experiments:
[1] = molecular target: T1, murine RANK-Fc (mouse, UniProt O35305 31-214); test: ELISA, immobilized mRANK-Fc, % binding normalised to the highest concentration
T1 construct: also called mRANK-Fc; mRANK-FC; not shown: Fc part of the bought fusion; not described
T1 sequence (looked up): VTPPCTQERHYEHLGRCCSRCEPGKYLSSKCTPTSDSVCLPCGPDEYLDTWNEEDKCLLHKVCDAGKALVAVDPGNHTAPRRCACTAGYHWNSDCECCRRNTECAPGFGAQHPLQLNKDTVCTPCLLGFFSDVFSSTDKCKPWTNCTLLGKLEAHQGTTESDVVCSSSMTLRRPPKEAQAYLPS

[2] = molecular target: B3; test: SPR (Biacore), hRANK-Fc captured on protein A at 40 RU, 37 C, 1:1 Langmuir fit
Description: (§1) A Biacore experiment was performed to determine the kinetics of binding of the dimeric variants. hRANK-FC (Sigma) was captured in flow cell 2 at a level of 40 RU by a 60 s injection pulse of a 0.7 ug/ml hRANK-FC solution at a flow rate of 50 uL/min. Flow cell 1 served as reference cell. Subsequently, serial dilutions ranging from 562 nM to 100 pM of murine RANKL wt (R&D systems), or the purified RANKL dimers mD1 and mD2 were injected over both flow cells at 50 uL/min and 37° C. Binding was measured in real time. After each cycle the protein A surface was regenerated with a 30 s pulse of 10 mM Glycine pH 1.5. Kd values were calculated by fitting the data to a langmuir 1:1 binding model using the BIAevaluation software as described before (30). (Table 6 and FIG. 6).
(§2) Kinetic binding parameters were measured in real time using SPR. RANKL dimer binding curves were recorded using concentrations ranging from 100 pM to 562 nM dimer 1 (mD1) or dimer 2 (mD2), trimeric murine wild-type RANKL was used as a control. Measurements were performed at 37° C. The dissociation constants (KD) were determined by fitting the data to a Langmuir 1:1 interaction model. […] The binding off-rate constant (koff) of wild-type murine RANKL was ˜2 to 6 fold slower than for dimer 1 and dimer 2.

[3] = molecular target: T1, murine RANK-Fc; test: competitive ELISA on mRANK-Fc coated wells, competitor 2 nM flag-mRANKL WT, anti-flag detection
Description: The ability of mD1 and mD2 to compete with mRANKL WT for binding to mRANK-Fc was investigated using a competitive ELISA. Serial dilutions of mD1 or mD2 (0-400 nM) and a fixed concentration (2 nM) of flag-mRANKL WT were added to mRANK-Fc coated wells. A dose-dependent decrease of flag-mRANKL WT binding was observed upon increasing concentrations of mD1 and mD2 (FIG. 18A).

[4] = molecular target: B3; test: SPR on hRANK-Fc, 37 C
Description: as §1, §2

[5] = molecular target: T1, murine RANK-Fc; test: competitive ELISA on RANK-Fc coated wells, competitor flag-mRANKL (0-53 nM), anti-flag detection, global four parameter fit
Description: The ability of dimer 1 and dimer 2 to compete with wild-type murine RANKL for binding to mRANK was investigated using a competitive ELISA. […] After washing off unbound RANKL, mRANK bound flag-mRANKL was detected by an anti-flag antibody. A RANKL dimer concentration dependant decrease in mRANK binding and right shift in the EC₅₀ of flag-mRANKL was observed (FIGS. 7 and 18B), indicating a competitive inhibition based mechanism. IC₅₀ values for dimer 1 and dimer 2 were calculated to be 4 nM by a global fit of the individual dose response curves using a four parameter logistic model.

[6] = molecular target: B2; test: SPR single cycle kinetics, hRANK-Fc captured at 20-40 RU, 1:1 fit
Description: (§3) Considering the high similarity between human RANKL and murine RANKL (>88%) the murine dimers were also tested for hRANK binding. Binding to hRANK-Fc and mRANK-Fc (both from R&D Systems) was recorded for five consecutive concentrations of murine flag RANKL WT, D1 (mD1) or D2 (mD2) (˜0.3-15 nM) using SPR with a single cycle kinetics based approach. The capture level of mRANK-Fc and hRANK-Fc was low (20-40 RU) in order to ensure 1:1 binding. Both WT and the D1 and D2 dimeric variants bound with high affinity towards the mRANK receptor and to the human RANK receptor (FIG. 16: Table 8).

[7] = molecular target: B4; test: as above
Description: as §3

[8] = molecular target: B2; test: SPR (Biacore), hRANK-Fc captured on protein A at 40 RU, 37 C, 1:1 Langmuir fit
Description: as §1, §2

[9] = molecular target: B4; test: as above
Description: as §1, §2

B1: trimeric murine wild-type RANKL (R&D systems) (ligand, mouse, UniProt O35235 158-316, looked up)
chain: KPEAQPFAHLTINAASIPSGSHKVTLSSWYHDRGWAKISNMTLSNGKLRVNQDGFYYLYANICFRHHETSGSVPTDYLQLMVYVVKTSIKIPSSHNLMKGGSTKNWSGNSEFHFYSINVGGFFKLRAGEEISIQVSNPSLLDPDQDATYFGAFKVQDID
notes: Bought soluble trimeric protein; also called murine RANKL wt; mRANKL WT
Question: Which “EC50 (read off the curve)” value [1] does the source give for B1 here?
Answer: Its value is roughly 100 pM.

Question: And the Ka [2]?
Answer: Its Ka is 9.23e+09 M⁻¹.

Question: And the Kd [2]?
Answer: The Kd was 110 pM.

Question: What about the koff [2] of the same binder?
Answer: Its koff is 8.97e-05 s⁻¹.

Question: What about the kon [2] of the same binder?
Answer: The kon was 827000 M⁻¹ s⁻¹.

Question: For B2, which IC50 [3] is on record?
Answer: Its IC50 is 31000 pM.

Question: And the “fold faster kon than wild-type murine RANKL” value [4]?
Answer: Its value is roughly 5 fold.

Question: And the IC50 [5]?
Answer: The IC50 was 4000 pM.

Question: Which results are given for B3?
Answer: Kd [6]: 129 pM; koff [6]: 0.00108 s⁻¹; kon [6]: 8.8e+06 M⁻¹ s⁻¹; Kd [7]: 25.9 pM; koff [7]: 0.000173 s⁻¹; kon [7]: 6.69e+06 M⁻¹ s⁻¹; Ka [8]: 2.33e+10 M⁻¹; Kd [8]: 44.6 pM; koff [8]: 0.000197 s⁻¹; kon [8]: 4.52e+06 M⁻¹ s⁻¹; Ka [9]: 1.8e+10 M⁻¹; Kd [9]: 61.9 pM; koff [9]: 0.000554 s⁻¹; kon [9]: 8.55e+06 M⁻¹ s⁻¹

Question: Which results are given for B4?
Answer: IC50 [3]: 28000 pM; fold faster kon than wild-type murine RANKL [4]: ~10 fold; IC50 [5]: 4000 pM
